Data on one molecule can be found in patent publication US20230277613A1, “Polysaccharide-Rich Bombax Costatum Flower Extract” (priority 2020, published 2023).

Marks after values point to notes of the source that are not given here.

This assay concerns normal human keratinocyte monolayer (NHK). The assay can be described thus: Scratch assay, migration of NHK. Type of assay: cell-based. To be noted: EGF 100 ng/ml; 5 hours. As for the experimental part:
Scratch Assay: a lesion was performed on a mat of normal human keratinocyte monolayer (NHK) at confluence before treatment with BCP extract at 0.01% and 0.05% dry matter or with EGF (Epidermal Growth Factor) at 100 ng/ml. A photo was taken at the start of treatment and after 5 hours of incubation in order to measure the rate of progression of the HCNs within the lesion. The percentage of coverage was evaluated under the different conditions by image analysis. The significance of the results was assessed by Student's t test.

B1: EGF: Epidermal Growth Factor, reference in the scratch assay (protein, UniProt P01133 23-1207, looked up)
Pro-epidermal growth factor: PQHWSCPEGTLAGNGNSTCVGPAPFLIFSHGNSIFRIDTEGTNYEQLVVDAGVSVIMDFHYNEKRIYWVDLERQLLQRVFLNGSRQERVCNIEKNVSGMAINWINEEVIWSNQQEGIITVTDMKGNNSHILLSALKYPANVAVDPVERFIFWSSEVAGSLYRADLDGVGVKALLETSEKITAVSLDVLDKRLFWIQYNREGSNSLICSCDYDGGSVHISKHPTQHNLFAMSLFGDRIFYSTWKMKTIWIANKHTGKDMVRINLHSSFVPLGELKVVHPLAQPKAEDDTWEPEQKLCKLRKGNCSSTVCGQDLQSHLCMCAEGYALSRDRKYCEDVNECAFWNHGCTLGCKNTPGSYYCTCPVGFVLLPDGKRCHQLVSCPRNVSECSHDCVLTSEGPLCFCPEGSVLERDGKTCSGCSSPDNGGCSQLCVPLSPVSWECDCFPGYDLQLDEKSCAASGPQPFLLFANSQDIRHMHFDGTDYGTLLSQQMGMVYALDHDPVENKIYFAHTALKWIERANMDGSQRERLIEEGVDVPEGLAVDWIGRRFYWTDRGKSLIGRSDLNGKRSKIITKENISQPRGIAVHPMAKRLFWTDTGINPRIESSSLQGLGRLVIASSDLIWPSGITIDFLTDKLYWCDAKQSVIEMANLDGSKRRRLTQNDVGHPFAVAVFEDYVWFSDWAMPSVMRVNKRTGKDRVRLQGSMLKPSSLVVVHPLAKPGADPCLYQNGGCEHICKKRLGTAWCSCREGFMKASDGKTCLALDGHQLLAGGEVDLKNQVTPLDILSKTRVSEDNITESQHMLVAEIMVSDQDDCAPVGCSMYARCISEGEDATCQCLKGFAGDGKLCSDIDECEMGVPVCPPASSKCINTEGGYVCRCSEGYQGDGIHCLDIDECQLGEHSCGENASCTNTEGGYTCMCAGRLSEPGLICPDSTPPPHLREDDHHYSVRNSDSECPLSHDGYCLHDGVCMYIEALDKYACNCVVGYIGERCQYRDLKWWELRHAGHGQQQKVIVVAVCVVVLVMLLLLSLWGAHYYRTQKLLSKNPKNPYEESSRDVRSRRPADTEDGMSSCPQPWFVVIKEHQDLKNGGQPVAGEDGQAADGSMQPTSWRQEPQLCGMGTEQGCWIPVSSDKGSCPQVMERSFHMPSYGTQTLEGGVEKPHSLLSANPLWQQRALDPPHQMELTQ
modifications: Pro-epidermal growth factor
On to B1, for which the “Evolution compared to the control” value is reported as “+85% **”.
